Measured values as given in paper PMC10238842 (Molecular Therapy. Methods & Clinical Development, 2023).
Numbering of substitutions follows the chain as printed. Names may count otherwise.

B1: AAV1 VP3 (VP3M, VP3 203-736) of the AAV1-VP3-only capsid (natural protein, adeno-associated virus serotype 1 (AAV1), UniProt Q9WBP8 204-736, looked up)
chain: ASGGGAPMADNNEGADGVGNASGNWHCDSTWLGDRVITTSTRTWALPTYNNHLYKQISSASTGASNDNHYFGYSTPWGYFDFNRFHCHFSPRDWQRLINNNWGFRPKRLNFKLFNIQVKEVTTNDGVTTIANNLTSTVQVFSDSEYQLPYVLGSAHQGCLPPFPADVFMIPQYGYLTLNNGSQAVGRSSFYCLEYFPSQMLRTGNNFTFSYTFEEVPFHSSYAHSQSLDRLMNPLIDQYLYYLNRTQNQSGSAQNKDLLFSRGSPAGMSVQPKNWLPGPCYRQQRVSKTKTDNNNSNFTWTGASKYNLNGRESIINPGTAMASHKDDEDKFFPMSGVMIFGKESAGASNTALDNVMITDEEEIKATNPVATERFGTVAVNFQSSSTDPATGDVHAMGALPGMVWQDRDVYLQGPIWAKIPHTDGHFHPSPLMGGFGLKNPPPQILIKNTPVPANPPAEFSATKFASFITQYSTGQVSVEIEWELQKENSKRWNPEVQYTSNYAKSANVDFTVDNNGLYTEPRPIGTRYLTRPL
modifications: N-terminal methionine M203 removed; A204 acetylated at the N terminus
B2: AAV1-M211V-VP3 (VP3 of the AAV1-M211V-VP3-only capsid) (natural protein, adeno-associated virus serotype 1 (AAV1), UniProt Q9WBP8 204-736, looked up)
chain: B1 chain with M8V
modifications: N-terminal acetylation (NTA)

Biological target: the molecule itself
Assay: native MS

| Protein | stoichiometry N | binding result |
| --- | --- | --- |
| B1 | 60 | – |
| B2 | – | binds |
